Test results: patent US9969998B2, “Compositions of adenosine deaminase-2 (ADA2), variants thereof and methods of using same” (Halozyme, Inc., priority 2014, dated 2018)

How the values were obtained:
NK/T cells = experiment: rHuADA2 rescue of adenosine-mediated inhibition of NK/T cell proliferation; format: cell-based, human
Protocol: A mixture of NK and T cells (NK/T) were prepared from healthy donor's peripheral blood mononuclear cells (PBMC). Briefly, 10×10^7 HumanPBMCs were cultured for 6-7 days in Stem cell growth medium (SCGM; Order No. 20802-0500, CellGenix, Freiburg, Germany) with 5% human serum from donors with blood type AB (human AB serum; Cat. No. 35-060-C1, Mediatech, Mannassas, Va.) in the presence of 20 ng/mL anti-CD3 eBioscience, San Diego, Calif.; Cat. No. 16-0039) and 500 IU/mL recombinant human interleukin 2 (rhIL-2; Cat. No. 200-02, PeproTech, Rocky Hill, N.J.). The cells were then cultured for an additional 2-3 weeks in SCGM in the presence of 500 IU/mL rhIL-2. NK/T cells cultured for 2-4 weeks were used in experiments.
NK/T cells (10,000 cells/well) were plated in 96 well white plates with clear bottoms in a total volume of 180 μL. The cells were treated with 20 μL rHuADA2 at concentrations resulting from 3-fold dilution series, to give a final rHuADA2 concentration of 100 nM, 30 nM, 10 nM, 3 nM, 1 nM, 0.3 nM, 0.1 nM, and 0.03 nm, and then each well also was treated with 20 μL of adenosine at 1 mM. After treatment, the NK/T cells were cultured, processed and luminescence measured as described above. The mean cell survival (%) was determined by comparison of the measured luminescence to control cells not treated with adenosine or rHuADA2.
Experiments also were performed to assess the effect of rHuADA2 to reverse adenosine-mediated inhibition of NK/T cell proliferation at various concentrations of adenosine. The experiments were conducted in a similar manner as described above, with final adenosine concentration of 1 mM, 100, 50, or 25 μM and final rHuADA2 concentration of 100 nM, 30 nM, 10 nM, 3 nM, 1 nM, 0.3 nM, 0.1 nM, and 0.03 nM.

[1] = Daddona and Kelley (1981); cited from earlier work
[2] = Distribution in normal organs of naive mice vs. CT26 tumors (IVIS); format: in vivo, Balb/c mice; settings: 24 hr; for (Fluorescent intensity/Tissue Weight) - Baseline: 0.5 mg/kg IV
Protocol: To assess the distribution and elimination of administered PEG-ADA2-K374D in the tumor microenvironment or in normal organs, immunofluorescence was used to assess the presence of PEG-ADA2-K374D administered to mice. PEG-ADA2-K374D was labeled at room temperature for 60 minutes with DyLight755 Sulfydryl-Reactive Dye (DL755), a near-IR fluor, using the DyLight 755 Antibody Labeling Kit (Thermo Scientific, Rockford, Ill.). Alexa Fluor 750 (AF 750) labeled bovine serum albumin (BSA, 1 mg/mL) was purchased from (Life Technology, Carlsbad, Calif.).
To compare the distribution in naïve mice, CT26-tumor bearing mice were generated as described above, and were intravenously administered PEG-ADA2-K374D^DL755 at 0.5 mg/kg (n=3). Separately, naïve Balb/c mice also were intravenously administered PEG-ADA2-K374D^DL755 at 0.5 mg/kg (n=4). The mice were sacrificed and transcardically perfused with heparin normal saline 24 hours post PEG-ADA2-K374D^DL755 injection. Tumors from tumor-bearing mice and organs from naïve mice were collected and imaged with IVIS image system, and DL755 signal intensity was measured with LivingImage software as described above. Signal intensity was normalized by tissue organ weight.

B1: ADA2: wild-type human adenosine deaminase 2, mature form SEQ ID NO:5, homodimer (protein, listed as Homo sapiens)
chain: IDETRAHLLLKEKMMRLGGRLVLNTKEELANERLMTLKIAEMKEAMRTLIFPPSMHFFQAKHLIERSQVFNILRMMPKGAALHLHDIGIVTMDWLVRNVTYRPHCHICFTPRGIMQFRFAHPTPRPSEKCSKWILLEDYRKRVQNVTEFDDSLLRNFTLVTQHPEVIYTNQNVVWSKFETIFFTISGLIHYAPVFRDYVFRSMQEFYEDNVLYMEIRARLLPVYELSGEHHDEEWSVKTYQEVAQKFVETHPEFIGIKIIYSDHRSKDVAVIAESIRMAMGLRIKFPTVVAGFDLVGHEDTGHSLHDYKEALMIPAKDGVKLPYFFHAGETDWQGTSIDRNILDALMLNTTRIGHGFALSKHPAVRTYSWKKDIPIEVCPISNQVLKLVSDLRNHPVATLMATGHPMVISSDDPAMFGAKGLSYDFYEVFMGIGGMKADLRTLKQLAMNSIKYSTLLESEKNTFMEIWKKRWDKFIADVATK
modifications: ADA2 mature protein
- MS % (mean survival) (NK/T cells; ADA2 0.03 nM, 25 μM Adenosine): 81.7%
- MS % (mean survival) (NK/T cells; ADA2 0.03 nM, 50 μM Adenosine): 71.2%
- MS % (mean survival) (NK/T cells; ADA2 0.03 nM, 100 μM Adenosine): 45.9%
- MS % (mean survival) (NK/T cells; ADA2 0.03 nM, 1 mM Adenosine): 15.6%
- MS % (mean survival) (NK/T cells; ADA2 0.1 nM, 25 μM Adenosine): 89.6%
- MS % (mean survival) (NK/T cells; ADA2 0.1 nM, 50 μM Adenosine): 76.6%
- MS % (mean survival) (NK/T cells; ADA2 0.1 nM, 100 μM Adenosine): 43.8%
- MS % (mean survival) (NK/T cells; ADA2 0.1 nM, 1 mM Adenosine): 16.3%
- MS % (mean survival) (NK/T cells; ADA2 0.3 nM, 25 μM Adenosine): 90.5%
- MS % (mean survival) (NK/T cells; ADA2 0.3 nM, 50 μM Adenosine): 64.8%
- MS % (mean survival) (NK/T cells; ADA2 0.3 nM, 100 μM Adenosine): 57.8%
- MS % (mean survival) (NK/T cells; ADA2 0.3 nM, 1 mM Adenosine): 18.3%
- MS % (mean survival) (NK/T cells; ADA2 1 nM, 25 μM Adenosine): 99.3%
- MS % (mean survival) (NK/T cells; ADA2 1 nM, 50 μM Adenosine): 80.2%
- MS % (mean survival) (NK/T cells; ADA2 1 nM, 100 μM Adenosine): 71.7%
- MS % (mean survival) (NK/T cells; ADA2 1 nM, 1 mM Adenosine): 22.6%
- MS % (mean survival) (NK/T cells; ADA2 3 nM, 25 μM Adenosine): 107.4%
- MS % (mean survival) (NK/T cells; ADA2 3 nM, 50 μM Adenosine): 94%
- MS % (mean survival) (NK/T cells; ADA2 3 nM, 100 μM Adenosine): 91.6%
- MS % (mean survival) (NK/T cells; ADA2 3 nM, 1 mM Adenosine): 41.4%
- MS % (mean survival) (NK/T cells; ADA2 10 nM, 25 μM Adenosine): 121.2%
- MS % (mean survival) (NK/T cells; ADA2 10 nM, 50 μM Adenosine): 105.9%
- MS % (mean survival) (NK/T cells; ADA2 10 nM, 100 μM Adenosine): 108.3%
- MS % (mean survival) (NK/T cells; ADA2 10 nM, 1 mM Adenosine): 67.1%
- MS % (mean survival) (NK/T cells; ADA2 30 nM, 25 μM Adenosine): 117.2%
- MS % (mean survival) (NK/T cells; ADA2 30 nM, 50 μM Adenosine): 114.7%
- MS % (mean survival) (NK/T cells; ADA2 30 nM, 100 μM Adenosine): 114.4%
- MS % (mean survival) (NK/T cells; ADA2 30 nM, 1 mM Adenosine): 79.1%
- MS % (mean survival) (NK/T cells; ADA2 100 nM, 25 μM Adenosine): 120.6%
- MS % (mean survival) (NK/T cells; ADA2 100 nM, 50 μM Adenosine): 116.9%
- MS % (mean survival) (NK/T cells; ADA2 100 nM, 100 μM Adenosine): 109%
- MS % (mean survival) (NK/T cells; ADA2 100 nM, 1 mM Adenosine): 96.3%
- stability at higher temperature [1]: substantially more stable at higher temperature compared to ADA1

B2: PEG-K374D: rHuADA2-K374D (SEQ ID NO:20) PEGylated on surface exposed lysines with linear PEG-20K (conjugate)
chain: IDETRAHLLLKEKMMRLGGRLVLNTKEELANERLMTLKIAEMKEAMRTLIFPPSMHFFQAKHLIERSQVFNILRMMPKGAALHLHDIGIVTMDWLVRNVTYRPHCHICFTPRGIMQFRFAHPTPRPSEKCSKWILLEDYRKRVQNVTEFDDSLLRNFTLVTQHPEVIYTNQNVVWSKFETIFFTISGLIHYAPVFRDYVFRSMQEFYEDNVLYMEIRARLLPVYELSGEHHDEEWSVKTYQEVAQKFVETHPEFIGIKIIYSDHRSKDVAVIAESIRMAMGLRIKFPTVVAGFDLVGHEDTGHSLHDYKEALMIPAKDGVKLPYFFHAGETDWQGTSIDRNILDALMLNTTRIGHGFALSKHPAVRTYSWDKDIPIEVCPISNQVLKLVSDLRNHPVATLMATGHPMVISSDDPAMFGAKGLSYDFYEVFMGIGGMKADLRTLKQLAMNSIKYSTLLESEKNTFMEIWKKRWDKFIADVATK
modifications: linear PEG-20K on surface lysines; human ADA2 K371D, mature numbering
- (Fluorescent intensity/Tissue Weight) - Baseline ([2]; Bone, naive mice): 1.82E+06
- (Fluorescent intensity/Tissue Weight) - Baseline ([2]; Brain, naive mice): 2.11E+05
- (Fluorescent intensity/Tissue Weight) - Baseline ([2]; Colon, naive mice): 9.13E+05
- (Fluorescent intensity/Tissue Weight) - Baseline ([2]; Heart, naive mice): 5.55E+05
- (Fluorescent intensity/Tissue Weight) - Baseline ([2]; Kidney, naive mice): 8.61E+05
- (Fluorescent intensity/Tissue Weight) - Baseline ([2]; Liver, naive mice): 4.02E+06
- (Fluorescent intensity/Tissue Weight) - Baseline ([2]; Lung, naive mice): 1.22E+06
- (Fluorescent intensity/Tissue Weight) - Baseline ([2]; Spleen, naive mice): 2.98E+06
- (Fluorescent intensity/Tissue Weight) - Baseline ([2]; Tumor, CT26 tumor-bearing mice): 6.22E+06
- Signal Intensity (Tumor vs Organ) ([2]; ratio tumor/Bone): 3.4
- Signal Intensity (Tumor vs Organ) ([2]; ratio tumor/Brain): 29.5
- Signal Intensity (Tumor vs Organ) ([2]; ratio tumor/Colon): 6.8
- Signal Intensity (Tumor vs Organ) ([2]; ratio tumor/Heart): 11.2
- Signal Intensity (Tumor vs Organ) ([2]; ratio tumor/Kidney): 7.2
- Signal Intensity (Tumor vs Organ) ([2]; ratio tumor/Liver): 1.5
- Signal Intensity (Tumor vs Organ) ([2]; ratio tumor/Lung): 5.1
- Signal Intensity (Tumor vs Organ) ([2]; ratio tumor/Spleen): 2.1
